1 molecule from patent US20130095503A1, “SERUM SPLA2-IIA AS DIAGNOSIS MARKER FOR PROSTATE AND LUNG CANCER” (UNIVERSITY OF CINCINNATI, priority 2010, published 2013) can be followed below.

The target of test [1] is T1, HER2 (Homo sapiens, UniProt P04626). The experiment in a line: Western blot of P-HER2 in LNCaP-AI prostate cancer cells treated with sPLA2-IIA. Format: cell-based. The arrangement: endogenous in cells. The note with it: 0.5 μg/mL for 0-180 min or 0-0.5 μg/mL for 2 H, FIG. 23. As to the method:
Additionally, LNCaP-AI prostate cancer cells were starved in 1% stripped medium for 24 H. The cells were then treated with recombinant human sPLA2-IIA (0.5 μg/mL) for 30 to 180 minutes (0, 30, 60, 120, or 180 min) or with various concentrations of sPLA2-IIA (0, 0.125, 0.25, or 0.5 μg/mL) for 2 H in medium containing 10% FBS. Cell extracts were prepared and subjected to western blot analysis for P-HER2 and HER2. Western blot analysis was conducted as previously described.

The test system of the next test is LNCaP-AI cells. The experiment in a line: MTT growth assay in LNCaP-AI cells. The class given is cell-based, human. Conditions: 10% stripped medium, about 4 days, FIG. 11. As to the method:
The role of sPLA2-IIA in the growth of prostate cancer cells was studied by MTT assay. Specifically, LNCaP-AI cells were cultured in 10% stripped medium in the presence of EGF (ng/mL) or sPLA2-IIA (ng/mL) for about 4 days, followed by performance of an MTT assay. The role of sPLA2-IIA on prostate cancer cell growth was also studied by blocking the activity of sPLA2-IIA in LNCaP-AI cells. The activity of sPLA2-IIA was blocked in LNCaP-AI cells by administering the peptide inhibitor cFLYSYR (μM) or c(NapA)R (μM) for about 4 days, followed by performance of an MTT assay.
On the technique in general: Formazan colour is commonly taken as a measure of viable cells.

A further test concerns the target T2, HER3 (Homo sapiens, UniProt P21860).
T2 construct: endogenous in cells; host or cells: H1975 lung cancer cells
The test is described as follows: Western blot of P-HER3 in lung cancer cells treated with sPLA2-IIA. The class given is cell-based. Conditions: A549 and H1975 cells (FIG. 22B: H1975), 0-0.5 μg/mL, 2 H, 10% FBS. As to the method:
(§1) A549 and H1975 lung cancer cells were starved in 1% stripped medium for 24 H. The cells were then treated with recombinant human sPLA2-IIA (0.5 μg/mL) with various concentrations (0, 0.125, 0.25, or 0.5 μg/mL) of sPLA2-IIA for 2 H in medium containing 10% fetal bovine serum (hereinafter “FBS”). Cell extracts were prepared and subjected to western blot analysis for HER2, P-HER2, HER3, and P-HER3. Western blot analysis was conducted as previously described.

Test [2] addresses T1, HER2. The test is described as follows: Western blot of P-HER2 in lung cancer cells treated with sPLA2-IIA. Format: cell-based. The arrangement: endogenous in cells; host or cells: A549 lung cancer cells. The note with it: A549 and H1975 cells (FIG. 22A: A549), 0-0.5 μg/mL, 2 H, 10% FBS. As to the method: as §1
A general note: A western blot detects proteins with antibodies after separation by electrophoresis.

T2 sequence (P21860 20-1342): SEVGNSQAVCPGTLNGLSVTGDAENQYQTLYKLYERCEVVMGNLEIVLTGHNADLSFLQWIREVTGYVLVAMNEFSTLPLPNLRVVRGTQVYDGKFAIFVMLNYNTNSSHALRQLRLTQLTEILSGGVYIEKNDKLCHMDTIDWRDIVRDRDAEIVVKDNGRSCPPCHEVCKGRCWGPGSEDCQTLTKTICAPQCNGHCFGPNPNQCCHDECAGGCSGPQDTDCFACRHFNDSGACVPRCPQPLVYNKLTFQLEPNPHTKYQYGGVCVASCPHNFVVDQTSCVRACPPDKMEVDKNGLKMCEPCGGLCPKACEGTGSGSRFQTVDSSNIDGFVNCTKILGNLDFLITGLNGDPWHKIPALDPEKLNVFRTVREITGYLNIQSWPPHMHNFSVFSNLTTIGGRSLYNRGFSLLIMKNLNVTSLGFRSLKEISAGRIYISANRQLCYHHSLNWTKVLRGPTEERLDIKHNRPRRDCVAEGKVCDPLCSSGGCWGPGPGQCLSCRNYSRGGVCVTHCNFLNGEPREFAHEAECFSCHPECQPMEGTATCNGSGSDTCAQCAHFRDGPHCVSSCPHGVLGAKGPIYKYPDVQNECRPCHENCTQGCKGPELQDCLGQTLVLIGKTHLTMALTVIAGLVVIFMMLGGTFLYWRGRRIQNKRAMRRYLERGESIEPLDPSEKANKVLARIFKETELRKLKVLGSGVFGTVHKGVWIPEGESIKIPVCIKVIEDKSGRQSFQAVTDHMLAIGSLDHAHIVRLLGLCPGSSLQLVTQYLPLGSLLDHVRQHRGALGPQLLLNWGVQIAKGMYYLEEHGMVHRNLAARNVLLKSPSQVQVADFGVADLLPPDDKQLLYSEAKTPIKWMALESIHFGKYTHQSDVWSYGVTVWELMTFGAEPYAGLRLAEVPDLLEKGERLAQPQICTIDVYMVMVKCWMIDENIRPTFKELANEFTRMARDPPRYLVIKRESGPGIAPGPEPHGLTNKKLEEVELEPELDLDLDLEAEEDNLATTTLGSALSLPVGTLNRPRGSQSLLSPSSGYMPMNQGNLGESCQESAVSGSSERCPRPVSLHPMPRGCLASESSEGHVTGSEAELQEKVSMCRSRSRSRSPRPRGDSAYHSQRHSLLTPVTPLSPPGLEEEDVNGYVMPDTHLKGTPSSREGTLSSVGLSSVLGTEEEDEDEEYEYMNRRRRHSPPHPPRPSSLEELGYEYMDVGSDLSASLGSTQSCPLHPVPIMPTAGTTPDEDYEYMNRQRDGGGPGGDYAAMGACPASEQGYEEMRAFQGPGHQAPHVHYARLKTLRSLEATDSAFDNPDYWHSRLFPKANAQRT

B1: recombinant human sPLA2-IIA: recombinant human secretory phospholipase A2-IIA (protein, UniProt P14555 21-144, looked up)
Phospholipase A2, membrane …: NLVNFHRMIKLTTGKEAALSYGFYGCHCGVGGRGSPKDATDRCCVTHDCCYKRLEKRGCGTKFLSYKFSNSGSRITCAKQDSCRSQLCECDKAAATCFARNKTTYNKKYQYYSNKHCRGSTPRC
In the case of B1, the “phosphorylation of HER2” value with HER2 [1] and in the test with HER2 [2] was “induced phosphorylation” in each case. In the test with LNCaP-AI cells, the “prostate cancer cell growth (MTT)” value is “stimulates prostate cancer cell growth”. Moreover, the “phosphorylation of HER3” value with HER3 is “induced phosphorylation”.
